The values below come from patent publication US12590158 (XIYUAN ANJIAN MEDICINE SHANGHAI, dated 2026).

The target in assay [1] is T1, TrkA extracellular region (33-417) protein comprising human Fc (ACROBiosystems TRA-H5259) (human, UniProt P04629 33-417).
T1 construct: range 33-417; Bought fusion protein; also called human TrkA (33-417); human TrkA extracellular region
Put plainly: competition ELISA, coated TrkA (33-417)-hFc, antibody titrated, competitor biotin-labeled human NGF. Here is the method: Each well of a 96-well microtiter plate was coated with 50 ng of TrkA extracellular region (33-417) protein fused to human Fc, washed three times and blocked with 3% BSA for 1 hour. […] Each well was added with 100 μl and incubated at room temperature for 30 minutes. […] Streptavidin-labeled horseradish peroxidase (Streptavidin-HRP, Biolegend, 405210) was added and incubated for 0.5 hours. After washing three times, TMB was added to the plate, and the absorbance at 450 nm was read by a microplate reader after the color development was terminated.

In assay [2] the target is T2, full-length human TrkA expressed on cells (human, UniProt P04629 33-796). Put plainly: cell-based or functional assay.
T2 sequence (P04629 33-796): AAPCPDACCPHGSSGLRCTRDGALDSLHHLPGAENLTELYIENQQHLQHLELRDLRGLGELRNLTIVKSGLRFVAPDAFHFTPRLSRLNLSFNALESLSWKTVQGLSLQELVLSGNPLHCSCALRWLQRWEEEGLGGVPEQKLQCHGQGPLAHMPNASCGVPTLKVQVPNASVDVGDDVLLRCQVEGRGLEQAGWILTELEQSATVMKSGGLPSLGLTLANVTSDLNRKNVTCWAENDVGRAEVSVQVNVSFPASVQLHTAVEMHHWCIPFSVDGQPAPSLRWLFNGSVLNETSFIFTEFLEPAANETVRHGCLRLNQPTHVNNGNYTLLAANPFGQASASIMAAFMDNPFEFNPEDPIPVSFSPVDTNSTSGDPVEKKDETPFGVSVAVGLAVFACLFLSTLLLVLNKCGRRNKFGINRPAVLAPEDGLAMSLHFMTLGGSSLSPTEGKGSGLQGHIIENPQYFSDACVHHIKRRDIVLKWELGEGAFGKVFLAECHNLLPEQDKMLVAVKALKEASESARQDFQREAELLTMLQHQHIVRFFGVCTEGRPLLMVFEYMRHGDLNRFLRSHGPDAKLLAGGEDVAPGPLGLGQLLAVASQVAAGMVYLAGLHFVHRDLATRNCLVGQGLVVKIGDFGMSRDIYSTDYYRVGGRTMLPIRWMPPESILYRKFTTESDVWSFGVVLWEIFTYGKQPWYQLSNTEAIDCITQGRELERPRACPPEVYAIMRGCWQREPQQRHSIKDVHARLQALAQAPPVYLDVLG
Assay [3] concerns the target fusion protein (fused to human Fc) containing only the portion of human TrkA extracellular region that binds NGF (TrkA 192-402) (ACROBiosystems TRA-H5258) (human) (UniProt P04629). Put plainly: ELISA, coated human TrkA (192-402)-hFc. In general terms: In an ELISA, binding on a coated surface is turned into a signal by an enzyme label.
The target in assay [4] is T3, human TrkB extracellular region protein (Yiqiao Shenzhou 10047-H03H) (human, UniProt Q16620 32-430).
T3 construct: extracellular domain; Bought protein
T3 sequence (Q16620 32-430): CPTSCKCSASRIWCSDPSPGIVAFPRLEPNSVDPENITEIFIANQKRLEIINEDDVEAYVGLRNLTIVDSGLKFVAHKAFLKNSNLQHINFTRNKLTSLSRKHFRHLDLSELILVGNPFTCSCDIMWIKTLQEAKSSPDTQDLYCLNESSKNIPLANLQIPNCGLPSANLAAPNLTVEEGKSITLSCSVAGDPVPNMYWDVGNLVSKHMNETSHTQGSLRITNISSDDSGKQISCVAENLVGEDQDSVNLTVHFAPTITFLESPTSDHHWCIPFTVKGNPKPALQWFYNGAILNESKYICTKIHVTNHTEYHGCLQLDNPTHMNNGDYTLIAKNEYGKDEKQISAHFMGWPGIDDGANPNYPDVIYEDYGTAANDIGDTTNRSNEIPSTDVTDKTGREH
Put plainly: ELISA, plate coated with human TrkB extracellular region protein, HRP goat anti-mouse Fc detection. Here is the method:
(§1) Example 2: ELISA Detection of the Binding of Murine Anti-TrkA Antibodies to Human TrkA The binding abilities of the anti-TrkA antibodies were detected by using a TrkA extracellular region (33-417) protein comprising human Fc (Beijing ACROBiosystems Co., Ltd., TRA-H5259). Each well of a 96-well microtiter plate was coated with 50 ng of human TrkA, washed and blocked, and then added with serially diluted antibodies, and incubated at room temperature for 1 hour. After washing three times, horseradish peroxidase-conjugated goat anti-mouse Fc antibody (Biolegend, 405306) was added and incubated at room temperature for 1 hour. After washing three time, tetramethylbenzidine (TMB, Biolegend, 421101) was added for color development. 1M HCl was used to terminate the color development, and the absorbance values were read at 450 nm with a microplate reader.
(§2) Example 7: Detection of the Binding of Murine Anti-TrkA Antibodies to TrkA Proteins of the Same Family Each well of a 96-well microtiter plate was coated with 50 ng of human TrkA extracellular region protein, human TrkB extracellular region protein (Beijing Yiqiao Shenzhou Technology Co., Ltd., 10047-H03H), human TrkC extracellular region protein (Beijing Yiqiao Shenzhou Technology Co., Ltd., 10048-H03H). The bindings of the anti-TrkA antibodies to human TrkA and the two proteins of the same family were detected according to the method described in Example 2.

In assay [5] the target is T1, TrkA extracellular region (33-417) …. Put plainly: BLI (ForteBio Octet Red96), TrkA (33-417)-hFc captured on anti-human Fc sensor, antibody in solution. The source says: Example 3: Affinity Assay of Murine Anti-TrkA Antibodies Binding to Human TrkA The affinities of the antibodies were detected with Biomolecular Interaction Detection Platform (ForteBio Octet Red96 (PALL)).
Human TrkA extracellular region (33-417) protein containing human Fc tag was fixed onto a chip by using an anti-human Fc capture sensor (Fortebio, 18-5088), and then bound to gradient concentrations of anti-TrkA antibody.
(BLI is a label-free optical method that tracks binding on a fibre tip over time.)

The target in assay [6] is T2, full-length human TrkA expressed on …. Put plainly: cell-based or functional assay. The source holds these as a separate data set.
Assay [7] addresses T4, rat TrkA extracellular region fusion protein (fused to human Fc) (Yiqiao Shenzhou 80243-R03H) (rat, UniProt P35739 33-418).
T4 construct: extracellular domain; Bought fusion protein
In words: ELISA, plate coated with rat TrkA extracellular region-hFc, HRP goat anti-mouse Fc detection. On the procedure: as §1
(§3) In addition, the species cross-reactivities of anti-TrkA antibodies were detected with monkey TrkA (Hangzhou Haoyang Biotechnology Co., Ltd., HSP037-05), rat TrkA (Beijing Yiqiao Shenzhou Technology Co., Ltd., 80243-R03H), mouse TrkA (Beijing Yiqiao Shenzhou Technology Co., Ltd., 51103-M02H) extracellular region fusion protein (fused to human Fc).

Assay [8] addresses T5, human TrkC extracellular region protein (Yiqiao Shenzhou 10048-H03H) (human, UniProt Q16288 32-429).
T5 construct: extracellular domain; Bought protein
In words: ELISA, plate coated with human TrkC extracellular region protein, HRP goat anti-mouse Fc detection. On the procedure: as §1, §2

Assay [9] concerns the target T2, full-length human TrkA expressed on …. Put plainly: cell-based or functional assay. The source holds these as a separate data set.
Assay [10] addresses T1, TrkA extracellular region (33-417) …. In words: ELISA, coated human TrkA (33-417)-hFc, anti-mouse Fc-HRP. Here is the method: as §1
The target of assay [11] is T6, mouse TrkA extracellular region fusion protein (fused to human Fc) (Yiqiao Shenzhou 51103-M02H) (mouse, UniProt Q3UFB7 34-420).
T6 construct: extracellular domain; Bought fusion protein
T6 sequence (Q3UFB7 34-420, stated change not applied): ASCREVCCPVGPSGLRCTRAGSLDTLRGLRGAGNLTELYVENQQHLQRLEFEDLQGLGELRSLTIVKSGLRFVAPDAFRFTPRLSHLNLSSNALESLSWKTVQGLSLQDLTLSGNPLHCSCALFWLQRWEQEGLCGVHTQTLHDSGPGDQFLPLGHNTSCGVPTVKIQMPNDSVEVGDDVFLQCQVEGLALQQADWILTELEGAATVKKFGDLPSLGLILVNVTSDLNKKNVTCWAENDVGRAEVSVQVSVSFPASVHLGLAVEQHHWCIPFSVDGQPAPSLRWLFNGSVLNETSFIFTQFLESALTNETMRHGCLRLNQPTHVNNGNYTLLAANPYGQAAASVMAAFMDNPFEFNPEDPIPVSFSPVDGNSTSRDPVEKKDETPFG
Put plainly: ELISA, plate coated with mouse TrkA extracellular region-hFc, HRP goat anti-mouse Fc detection. On the procedure: as §1, §3

T4 sequence (P35739 33-418, stated change not applied): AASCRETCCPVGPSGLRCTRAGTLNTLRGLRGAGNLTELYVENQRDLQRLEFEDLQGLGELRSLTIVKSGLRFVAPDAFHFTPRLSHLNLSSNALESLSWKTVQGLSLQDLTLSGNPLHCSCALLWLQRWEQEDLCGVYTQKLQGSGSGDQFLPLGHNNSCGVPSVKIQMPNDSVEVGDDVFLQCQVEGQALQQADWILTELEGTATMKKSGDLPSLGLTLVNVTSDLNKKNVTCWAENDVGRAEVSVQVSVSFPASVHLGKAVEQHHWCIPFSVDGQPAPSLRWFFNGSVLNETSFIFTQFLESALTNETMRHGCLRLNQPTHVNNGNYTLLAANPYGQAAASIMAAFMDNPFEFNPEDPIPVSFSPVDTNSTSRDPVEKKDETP
T1 sequence (P04629 33-417 limits assumed): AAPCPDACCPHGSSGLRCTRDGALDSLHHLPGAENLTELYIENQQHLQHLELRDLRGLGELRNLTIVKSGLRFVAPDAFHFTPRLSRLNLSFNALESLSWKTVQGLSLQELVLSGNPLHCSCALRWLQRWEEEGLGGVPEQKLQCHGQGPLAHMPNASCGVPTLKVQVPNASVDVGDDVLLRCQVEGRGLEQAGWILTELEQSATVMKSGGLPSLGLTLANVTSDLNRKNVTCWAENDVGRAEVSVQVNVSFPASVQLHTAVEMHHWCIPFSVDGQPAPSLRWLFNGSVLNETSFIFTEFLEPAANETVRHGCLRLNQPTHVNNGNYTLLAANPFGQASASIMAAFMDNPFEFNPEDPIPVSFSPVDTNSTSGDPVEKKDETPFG
Chain of fusion protein (fused to human Fc) containing only the portion of human TrkA extracellular region that binds NGF (TrkA 192-402) (ACROBiosystems TRA-H5258) (human) (P04629 192-402 limits assumed, form in doubt): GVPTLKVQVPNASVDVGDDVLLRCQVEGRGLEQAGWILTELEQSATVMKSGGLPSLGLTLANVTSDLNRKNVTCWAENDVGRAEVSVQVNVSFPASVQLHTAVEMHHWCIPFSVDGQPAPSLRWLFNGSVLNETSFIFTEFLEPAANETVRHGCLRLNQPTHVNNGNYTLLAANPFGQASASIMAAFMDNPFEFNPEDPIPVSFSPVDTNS

B1: anti-TrkA antibody 42H6 (antibody, V domains shown)
VH: QVQLQQPGVELVKPGASVKLSCKTSGYTFTSYWMHWVKQRPGQGLEWIGEIYSSNGLTNYNEKFKNKATLTVDKSSSTAYMQLTSLTSEDSAIYYCARHWYVFLDHWGQGTTLTVSS
VL: QAVVTQESALTTSPGETVTLTCRSSTGAVTTSNHANWVQEKPDHLFTGLIGGINNRAPGVPARFSGSLIGDKAALTITGAQTEDEAIYFCALWYSNHWVFGGGTRLTVL
notes: Murine monoclonal antibody purified from hybridoma medium by protein G
For orientation: IC50 means the point on the concentration scale where inhibition reaches its midpoint. A higher IC50 goes with weaker potency. As usually defined, the EC50 is the concentration giving half of the maximal effect. Broadly, the Kd is the free concentration of one partner at which half of the binding sites on the other are occupied at equilibrium, for simple one-to-one binding. One may read the koff as the rate constant with which the complex falls apart. Low readings indicate a long-lived complex, high ones a short-lived complex. As a reminder, the kon is the rate constant with which the complex forms. High values mean fast association, low ones slow association. Consider B1, for which the IC50 in [1] is 2.19 nM. In assay [2], the “inhibition of NGF-induced TrkA/Ba/F3 cell proliferation at 2.5 µg/mL (16.67 nM) or higher” value (“inhibition” below) came out at 100%. Besides, the EC50 in assay [3] was 0.175 nM; in assay [10], 0.135 nM. Moreover, the binding result is given as “no binding (tested: 66.67 nM)” in [4], “binds” in assay [7], “no binding (tested: 66.67 nM)” in assay [8] and “binds” in assay [11]. In assay [5], this molecule showed a Kd of 0.00677 nM. In addition, in assay [5], the koff is 9.91e-06 s⁻¹. Further, the kon in assay [5] was found to be 1.47e+06 M⁻¹ s⁻¹. Moreover, the “IC50 of inhibiting NGF-induced TF-1 cell proliferation” value in [6] stood at 3.58 nM. For the same molecule, the “IC50 of inhibiting NGF-induced TrkA/Ba/F3 cell proliferation” value in assay [9] stood at 0.782 nM.

B2: anti-TrkA antibody 42A11 (antibody, V domains shown)
VH: QVQLQQPGAELVKPGASVKLSCKASGYTFTNYWMHWVKQRPGQGLEWIGEIYPSNGRTNYNEKFKTKATLTVDKSSSTAYMHLSSLTSEDSAVYYCAGSRYDAMDFWGQGTSVTVSS
VL: QIVLTQSPAIMSASPGEKVTMTCSASSIISYMHWYQQKSGTSPKRWIYDTSKLASGVPARFSGSGSGTSYSLTISGMEAEDAATYYCHQWTSNPLTFGGGTKLELK
notes: as for B1
For B2, the IC50 in assay [1] was 2.05 nM. Also, the “inhibition” value in assay [2] was found to be 100%. The EC50 was found to be 0.234 nM in assay [3] and 0.187 nM in [10]. The binding result is recorded as “no binding (tested: 66.67 nM)” in [4], “binds” in [7], “no binding (tested: 66.67 nM)” in [8] and “binds” in assay [11]. The molecule further yielded a Kd in assay [5] of 0.00142 nM. The koff in assay [5] was found to be 1.26e-06 s⁻¹. In addition, the kon in assay [5] was determined as 889000 M⁻¹ s⁻¹. Further, the “IC50 of inhibiting NGF-induced TF-1 cell proliferation” value in [6] was found to be 1.46 nM. In addition, the “IC50 of inhibiting NGF-induced TrkA/Ba/F3 cell proliferation” value in [9] worked out at 0.738 nM.

B3: anti-TrkA antibody 33H5 (antibody, V domains shown)
VH: QVQLQQPGAELVKPGASVQLSCKASGYTFTSYWIHWVKQRPGQGLEWIGEINPNNGLTNYIEKFKNKATLTIDKSSNTAYMQLSGLTPEDSAVYYCAKYGNYVAFAYWGQGTLVTVSA
VL: DIQMTQSPASLSASVGDTVTITCRASENIYTYLAWYQQKQGKSPQLLVHNTKTLAEGVPSRFSGSGSGTQFSLKISSLQPEDFGTYYCQHHYGVPLTFGAGTKLELK
notes: as for B1
B3 registered an IC50 in assay [1] of 1.5 nM. In assay [2], the “inhibition” value stood at 100%. The results for the EC50 in [3] and in assay [10] were 0.173 nM and 0.204 nM, respectively. Moreover, the binding result is “no binding (tested: 66.67 nM)” in assay [4], “binds” in assay [7], “no binding (tested: 66.67 nM)” in assay [8] and “binds” in assay [11]. The molecule further came in with a Kd in assay [5] of 0.0162 nM. The dissociation rate constant (koff) in [5] turned out to be 2.09e-05 s⁻¹. Further, the kon in [5] is 1.29e+06 M⁻¹ s⁻¹. The “IC50 of inhibiting NGF-induced TF-1 cell proliferation” value in assay [6] is 2.14 nM. Further, the “IC50 of inhibiting NGF-induced TrkA/Ba/F3 cell proliferation” value in assay [9] was determined as 0.413 nM.

B4: anti-TrkA antibody 40D6 (antibody, V domains shown)
VH: QVQLQQSGTELMKPGASVKISCKATGYTFSRYWIEWVKQRPGHGLEWIGEILPGRSSTNYNEKFKGKATFTADTSSNTAYMQLSSLTSEDSAVYYCTRVSQLHIYFDYWGQGTTVTVSS
VL: DIVMTQVVPSVPVTPGESVSISCRSSKSLLHSNGNTYLYWFQQRPGQSPQLLIYRMSNLASGVPDRFSGSGSGTAFTLRISRVEAEDVAFYYCMQHLEFPLTFGAGTKLELK
notes: as for B1
With B4, the IC50 in assay [1] turned out to be 2.28 nM. Also, in assay [2], the “inhibition” value was 100%. For the same molecule, the EC50 in assay [3] came to 0.195 nM; in assay [10], 0.202 nM. The binding result was “no binding (tested: 66.67 nM)” in assay [4], “binds” in assay [7], “no binding (tested: 66.67 nM)” in assay [8] and “binds” in [11]. For the same molecule, the dissociation constant (Kd) in assay [5] stood at 0.0271 nM. In assay [5], this molecule showed a koff of 2.49e-05 s⁻¹. In addition, in assay [5], the kon is 918000 M⁻¹ s⁻¹. Further, in assay [6], the “IC50 of inhibiting NGF-induced TF-1 cell proliferation” value came to 8.53 nM. For the same molecule, the “IC50 of inhibiting NGF-induced TrkA/Ba/F3 cell proliferation” value in assay [9] worked out at 1.8 nM.
